Data taken from patent US20230374147A1 (HUMMINGBIRD BIOSCIENCE PTE, published 2023).

T1: human BCMA expressed on cells (human, UniProt Q02223 1-184)
T1 construct: the cell line is named under assay; also called wildtype human BCMA
T1 sequence: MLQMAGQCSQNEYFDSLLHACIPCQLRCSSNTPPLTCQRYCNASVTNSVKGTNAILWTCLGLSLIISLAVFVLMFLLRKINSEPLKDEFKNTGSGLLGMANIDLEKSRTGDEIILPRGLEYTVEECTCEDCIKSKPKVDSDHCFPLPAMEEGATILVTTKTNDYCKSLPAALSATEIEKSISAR

T2: Cyno TACI-His (Sino Biological, 90976-C08H) (cynomolgus macaque, UniProt G7PTR7 1-165)
T2 construct: Bought protein; also called cynomolgous macaque TACI; CyTACI
T2 sequence: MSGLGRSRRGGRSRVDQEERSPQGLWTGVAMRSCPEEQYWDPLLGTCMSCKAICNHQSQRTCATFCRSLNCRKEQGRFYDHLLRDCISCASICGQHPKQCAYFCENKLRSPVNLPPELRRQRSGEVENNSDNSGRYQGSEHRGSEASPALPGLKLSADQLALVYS

T3: recombinant his-tagged human TACI (Sinobiological cat #11937-H08H) (human, UniProt O14836 1-165)
T3 construct: Bought protein; also called Human TACI-His; huTACI; not shown: His tag
T3 sequence: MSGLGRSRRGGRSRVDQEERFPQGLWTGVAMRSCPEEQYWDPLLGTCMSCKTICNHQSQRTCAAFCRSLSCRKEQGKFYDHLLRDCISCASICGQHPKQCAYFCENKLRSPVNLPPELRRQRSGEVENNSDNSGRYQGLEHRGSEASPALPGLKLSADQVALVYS

T4: Human BCMA-His (Sino Biological, 10620-H08H) (human, UniProt Q02223 1-54)
T4 construct: not shown: His tag
T4 sequence: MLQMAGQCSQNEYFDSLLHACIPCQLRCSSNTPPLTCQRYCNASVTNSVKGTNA

T5: His-tagged human BCMA (Acro Biosystems, Cat. #BCA-H522y) (human, UniProt Q02223 1-54)
T5 construct: also called huBCMA; P1; not shown: His tag
T5 sequence: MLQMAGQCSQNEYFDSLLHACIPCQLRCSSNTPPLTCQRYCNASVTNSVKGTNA


Experiments:
[1] = molecular target: T1, human BCMA expressed on cells; assay: flow cytometry, H929 cells (BCMA+)
[2] = molecular target: T6, His-tagged cynomolgous macaque BCMA (Acro Biosystems, BCA-C52H7) (cynomolgus macaque, UniProt Q02223 1-54 (human entry)); assay: ELISA, coated Cyno BCMA-His
T6 construct: Bought protein; also called cyno BCMA; CyBCMA; not shown: His tag

[3] = molecular target: T1, human BCMA expressed on cells; assay: flow cytometry, fixed RPMI 8226 cells (BCMA+, TACI+: the cells carry both targets)
[4] = molecular target: T2, Cyno TACI-His (Sino Biological, …); assay: ELISA, coated Cyno TACI-His
[5] = molecular target: T7, Human HER3-His (Sino Biological, 10201-H08H) (human, UniProt P21860 20-643); assay: ELISA, coated His-tagged antigen
T7 construct: Specificity control; also called Human HERS-His

[6] = molecular target: T3, recombinant his-tagged human TACI …; assay: ELISA, coated Human TACI-His
[7] = molecular target: T4, Human BCMA-His (Sino Biological, …); assay: ELISA, coated Human BCMA-His
[8] = molecular target: T5, His-tagged human BCMA (Acro Biosystems, …); assay: HDX-MS of the 1:1 complex against free BCMA

Binder | EC50 [1] [nM] | binding result [2] | EC50 [3] [nM] | EC50 [4] [nM] | binding result [5] | EC50 [6] [nM] | EC50 [7] [pM] | binding result [8]
1C8-6A3 hIgG1 (antibody, V domains shown, also called [94]; hu1C8) VH: QVQLVQSGAEVKKPGASVKVSCKASGYTFTNYVMHWVKQKPGQGLEWMGYILPYNDGTKYAQKFQGKVTMTSDKSTSTVYMELSSLTSEDTAVYYCARYDYEGSFDYWGQGTLVTVSS VL: DIQMTQSPSSLSASVGDRVTITCRASQDISNYLNWYQQKPGKAPKLLMCYTSRLHSGVPSRFSGSGSGTDFTLTISSLEQEDFATYYCQQGNTFPPTFGGGTKVEIKR | 0.111 | binds | 0.238 | 0.028 | no binding (tested: 3 µg/ml (highest concentration)) | 1.32 | 5 | –
1C8-402 hIgG1 (LALA) (antibody, also called S1) heavy: not shown light: DIQMTQSPSSLSASVGDRVTITCRASQDISNYLSWYQQKPGKAPKLLMRYTSRLHSGVPSRFSGSGSGTDFTLTISSLEQEDFATYYCQQGNLFPPTFGGGTKVEIKRTVAAPSVFIFPPSDEQLKSGTASVVCLLNNFYPREAKVQWKVDNALQSGNSQESVTEQDSKDSTYSLSSTLTLSKADYEKHKVYACEVTHQGLSSPVTKSFNRGEC | – | – | – | – | – | – | – | binds
